Residue numbers refer to the chain shown, from its start. Names and notes keep the numbering of the source.

Results on 4 molecules are retold here after patent US20170058297A1.

The target of data set [1] is Cre-B2 (P1 Bacteriophage) (UniProt P06956). The experiment in a line: cell-based or functional assay.
In data set [2] the target is Cre-B3 (P1 Bacteriophage) (UniProt P06956). In words: cell-based or functional assay.
Data set [3] deals with Cre-A3 (P1 Bacteriophage) (UniProt P06956). In words: cell-based or functional assay.
For the next data set, the target named is T1, Cre-B2.
T1 chain: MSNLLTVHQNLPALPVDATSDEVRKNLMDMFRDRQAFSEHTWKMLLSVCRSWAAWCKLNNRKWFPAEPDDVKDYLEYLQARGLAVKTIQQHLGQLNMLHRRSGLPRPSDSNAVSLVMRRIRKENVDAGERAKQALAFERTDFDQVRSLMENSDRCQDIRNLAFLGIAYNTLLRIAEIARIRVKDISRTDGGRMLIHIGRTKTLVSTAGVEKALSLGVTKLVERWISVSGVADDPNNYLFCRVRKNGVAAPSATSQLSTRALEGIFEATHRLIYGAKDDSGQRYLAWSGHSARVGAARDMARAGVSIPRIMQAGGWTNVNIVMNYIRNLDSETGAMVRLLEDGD

Another data set addresses T2, Cre-E123LE-R337E.
T2 chain: T1 chain with D69E, K72R, E76L, E123L, R308E, R337E

The target of data set [4] is Cre-A2 (P1 Bacteriophage) (UniProt P06956). In words: cell-based or functional assay.
Data set [5] concerns the target Cre-A1 (P1 Bacteriophage) (UniProt P06956). The experiment in a line: cell-based or functional assay.
Data set [6] deals with Cre-B1 (P1 Bacteriophage) (UniProt P06956). The experiment in a line: cell-based or functional assay.
The next data set addresses T3, Cre-B1.
T3 chain: T1 chain with R308E

B1: Cre-A3 (protein)
chain: MSNLLTVHQNLPALPVDATSDEVRRNLMRMFELRRAFSEHTWKMLLSVCRSWAAWCKLNNRKWFPAEPEDVRDYLLYLQARGLAVKTIQQHLGQLNMLHRRSGLPRPSDSNAVSLVMRRIRKLNVDAGERAKQALAFERTDFDQVRSLMENSDRCQDIRNLAFLGIAYNTLLRIAEIARIRVKDISRTDGGRMLIHIGRTKTLVSTAGVEKALSLGVTKLVERWISVSGVADDPNNYLFCRVRKNGVAAPSATSQLSTRALEGIFEATHRLIYGAKDDSGQRYLAWSGHSARVGAARDMARAGVSIPEIMQAGGWTNVNIVMNYIRNLDSETGAMVELLEDGD
For the molecule B1, the “recombinase activity in vitro (loxP excision, gel)” value is listed as “This mutation successfully disrupted formation of Cre-A2 homotetramers”. In data set [1], the RFP positive cells of 7000 sorted, Ai14 mouse ES reporter cells, promoter hbb + cmv, replicate 1 came to 1600 cells; the RFP positive cells of 7000 sorted, Ai14 mouse ES reporter cells, promoter hbb + cmv, replicate 2 came out at 1650 cells; the RFP positive cells of 7000 sorted, Ai14 mouse ES reporter cells, promoter hbb + cmv, replicate 3 amounted to 1700 cells; the RFP positive cells of 7000 sorted, Ai14 mouse ES reporter cells, promoter hbb + sp1, replicate 1 was 1500 cells. Further, in data set [1], the RFP positive cells of 7000 sorted, Ai14 mouse ES reporter cells, promoter hbb + sp1, replicate 2 amounted to 1530 cells; the RFP positive cells of 7000 sorted, Ai14 mouse ES reporter cells, promoter hbb + sp1, replicate 3 was 1610 cells; the RFP positive cells of 7000 sorted, Ai14 mouse ES reporter cells, promoter hbb, replicate 1 was determined as 256 cells; the RFP positive cells of 7000 sorted, Ai14 mouse ES reporter cells, promoter hbb, replicate 2 was found to be 233 cells. In data set [1], the RFP positive cells of 7000 sorted, Ai14 mouse ES reporter cells, promoter hbb, replicate 3 amounted to 284 cells and the recombinase activity in mouse ES reporter cells, relative to wild type Cre (% of wild type Cre activity) was 40. In addition, in [2], the RFP positive cells of 7000 sorted, Ai14 mouse ES reporter cells, promoter hbb + cmv, replicate 1 came out at 1 cells; the RFP positive cells of 7000 sorted, Ai14 mouse ES reporter cells, promoter hbb + cmv, replicate 2 was 2 cells; the RFP positive cells of 7000 sorted, Ai14 mouse ES reporter cells, promoter hbb + cmv, replicate 3 stood at 1 cells; the RFP positive cells of 7000 sorted, Ai14 mouse ES reporter cells, promoter hbb + sp1, replicate 1 was determined as 1 cells. In addition, in data set [2], the RFP positive cells of 7000 sorted, Ai14 mouse ES reporter cells, promoter hbb + sp1, replicate 2 was 1 cells; the RFP positive cells of 7000 sorted, Ai14 mouse ES reporter cells, promoter hbb + sp1, replicate 3 worked out at 2 cells; the RFP positive cells of 7000 sorted, Ai14 mouse ES reporter cells, promoter hbb, replicate 1 turned out to be 0 cells; the RFP positive cells of 7000 sorted, Ai14 mouse ES reporter cells, promoter hbb, replicate 2 came out at 1 cells. In addition, in [2], the RFP positive cells of 7000 sorted, Ai14 mouse ES reporter cells, promoter hbb, replicate 3 amounted to 0 cells. In addition, in data set [3], the RFP positive cells of 7000 sorted, Ai14 mouse ES reporter cells, promoter hbb + cmv, replicate 1 was 0 cells; the RFP positive cells of 7000 sorted, Ai14 mouse ES reporter cells, promoter hbb + cmv, replicate 2 was 1 cells; the RFP positive cells of 7000 sorted, Ai14 mouse ES reporter cells, promoter hbb + cmv, replicate 3 came to 1 cells; the RFP positive cells of 7000 sorted, Ai14 mouse ES reporter cells, promoter hbb + sp1, replicate 1 came out at 1 cells. Further, in data set [3], the RFP positive cells of 7000 sorted, Ai14 mouse ES reporter cells, promoter hbb + sp1, replicate 2 was 0 cells; the RFP positive cells of 7000 sorted, Ai14 mouse ES reporter cells, promoter hbb + sp1, replicate 3 is 0 cells; the RFP positive cells of 7000 sorted, Ai14 mouse ES reporter cells, promoter hbb, replicate 1 is 0 cells; the RFP positive cells of 7000 sorted, Ai14 mouse ES reporter cells, promoter hbb, replicate 2 is 0 cells. This molecule also showed an RFP positive cells of 7000 sorted, Ai14 mouse ES reporter cells, promoter hbb, replicate 3 in data set [3] of 1 cells. The “recombinase activity in vitro (loxP excision, gel)” value with Cre-B2 was “preserving activity in the Cre-A3+Cre-B2 heterotetramer”. Also, the “recombinase activity in vitro on six loxP/M7 hybrid substrates (gel)” value in the data set with Cre-B2-C2#4 is on record as “In vitro assays confirmed that the heterotetrameric Cre is more specific in recombining different arrangement of loxP/M7 sites”.

B2: Cre-E123L-E308R (protein)
chain: T1 chain with D69E, K72R, E76L, E123L
For the molecule B2, the “recombinase activity in vitro (loxP excision, gel)” value in the data set with Cre-E123LE-R337E is “In vitro assays indicated that these mutants do not form an obligate heterotetrameric pair”.

B3: Cre-A2 (protein)
chain: B1 chain with L123E
As to B3, the “recombinase activity in vitro (loxP excision, gel)” value is “while its activity is reduced relative to Cre-A1, the Cre-A2 monomer was still capable of forming a functional homotetrameric complex”. For the same molecule, in data set [1], the RFP positive cells of 7000 sorted, Ai14 mouse ES reporter cells, promoter hbb + cmv, replicate 1 came to 3180 cells; the RFP positive cells of 7000 sorted, Ai14 mouse ES reporter cells, promoter hbb + cmv, replicate 2 is 3410 cells; the RFP positive cells of 7000 sorted, Ai14 mouse ES reporter cells, promoter hbb + cmv, replicate 3 is 3700 cells; the RFP positive cells of 7000 sorted, Ai14 mouse ES reporter cells, promoter hbb + sp1, replicate 1 was determined as 3220 cells. Also, in [1], the RFP positive cells of 7000 sorted, Ai14 mouse ES reporter cells, promoter hbb + sp1, replicate 2 was found to be 3340 cells; the RFP positive cells of 7000 sorted, Ai14 mouse ES reporter cells, promoter hbb + sp1, replicate 3 was determined as 3590 cells; the RFP positive cells of 7000 sorted, Ai14 mouse ES reporter cells, promoter hbb, replicate 1 stood at 573 cells; the RFP positive cells of 7000 sorted, Ai14 mouse ES reporter cells, promoter hbb, replicate 2 is 528 cells. Further, the RFP positive cells of 7000 sorted, Ai14 mouse ES reporter cells, promoter hbb, replicate 3 in data set [1] is 607 cells. In addition, in data set [4], the RFP positive cells of 7000 sorted, Ai14 mouse ES reporter cells, promoter hbb + cmv, replicate 1 worked out at 1130 cells; the RFP positive cells of 7000 sorted, Ai14 mouse ES reporter cells, promoter hbb + cmv, replicate 2 came out at 1120 cells; the RFP positive cells of 7000 sorted, Ai14 mouse ES reporter cells, promoter hbb + cmv, replicate 3 came to 1050 cells; the RFP positive cells of 7000 sorted, Ai14 mouse ES reporter cells, promoter hbb + sp1, replicate 1 came out at 1050 cells. In data set [4], the RFP positive cells of 7000 sorted, Ai14 mouse ES reporter cells, promoter hbb + sp1, replicate 2 turned out to be 1000 cells; the RFP positive cells of 7000 sorted, Ai14 mouse ES reporter cells, promoter hbb + sp1, replicate 3 worked out at 1120 cells; the RFP positive cells of 7000 sorted, Ai14 mouse ES reporter cells, promoter hbb, replicate 1 is 47 cells; the RFP positive cells of 7000 sorted, Ai14 mouse ES reporter cells, promoter hbb, replicate 2 came out at 52 cells. In addition, the RFP positive cells of 7000 sorted, Ai14 mouse ES reporter cells, promoter hbb, replicate 3 in data set [4] is 41 cells. Besides, the “recombinase activity in vitro (loxP excision, gel)” value in the data set with Cre-B2 was “the Cre-A2+Cre-B2 combination exhibited strong recombinase activity”.

B4: Cre-A1 (protein)
chain: B1 chain with L123E, E337R
In the case of B4, the “recombinase activity in vitro (loxP excision, gel)” value is reported as “one of the mutants (Cre-A1) was active individually”. Moreover, in [5], the RFP positive cells of 7000 sorted, Ai14 mouse ES reporter cells, promoter hbb + cmv, replicate 1 came to 3850 cells; the RFP positive cells of 7000 sorted, Ai14 mouse ES reporter cells, promoter hbb + cmv, replicate 2 was found to be 3530 cells; the RFP positive cells of 7000 sorted, Ai14 mouse ES reporter cells, promoter hbb + cmv, replicate 3 was 3690 cells; the RFP positive cells of 7000 sorted, Ai14 mouse ES reporter cells, promoter hbb + sp1, replicate 1 amounted to 3750 cells. In [5], the RFP positive cells of 7000 sorted, Ai14 mouse ES reporter cells, promoter hbb + sp1, replicate 2 amounted to 3420 cells; the RFP positive cells of 7000 sorted, Ai14 mouse ES reporter cells, promoter hbb + sp1, replicate 3 was determined as 3500 cells; the RFP positive cells of 7000 sorted, Ai14 mouse ES reporter cells, promoter hbb, replicate 1 worked out at 414 cells; the RFP positive cells of 7000 sorted, Ai14 mouse ES reporter cells, promoter hbb, replicate 2 came to 378 cells. Also, the RFP positive cells of 7000 sorted, Ai14 mouse ES reporter cells, promoter hbb, replicate 3 in data set [5] turned out to be 391 cells. Besides, in data set [6], the RFP positive cells of 7000 sorted, Ai14 mouse ES reporter cells, promoter hbb + cmv, replicate 1 came to 5870 cells; the RFP positive cells of 7000 sorted, Ai14 mouse ES reporter cells, promoter hbb + cmv, replicate 2 was found to be 6030 cells; the RFP positive cells of 7000 sorted, Ai14 mouse ES reporter cells, promoter hbb + cmv, replicate 3 stood at 6360 cells; the RFP positive cells of 7000 sorted, Ai14 mouse ES reporter cells, promoter hbb + sp1, replicate 1 was 5700 cells. For the same molecule, in data set [6], the RFP positive cells of 7000 sorted, Ai14 mouse ES reporter cells, promoter hbb + sp1, replicate 2 came to 6120 cells; the RFP positive cells of 7000 sorted, Ai14 mouse ES reporter cells, promoter hbb + sp1, replicate 3 amounted to 5990 cells; the RFP positive cells of 7000 sorted, Ai14 mouse ES reporter cells, promoter hbb, replicate 1 is 1120 cells; the RFP positive cells of 7000 sorted, Ai14 mouse ES reporter cells, promoter hbb, replicate 2 amounted to 1210 cells. In data set [6], this molecule yielded an RFP positive cells of 7000 sorted, Ai14 mouse ES reporter cells, promoter hbb, replicate 3 of 1320 cells. Besides, the “recombinase activity in vitro (loxP excision, gel)” value with Cre-B1 is given as “the combined pair of redesigned mutants was active (Cre-A1+Cre-B1”.
